Assay [1] has as its target eIF2 (yeast (Saccharomyces cerevisiae)) (UniProt P20459). In words: pull-down; GDF assay (competition): 1 µg eIF2 or eIF2αP and 1 µg GST-eIF5 bound to glutathione sepharose beads 2 h at 4°C, washed, then challenged 2 h at 4°C with increasing concentrations of Flag-eIF2B complexes, subunits or eIF5-Flag; 30 mM HEPES, 100 mM KCl, 100 µM GDP, 5 mM DTT, 1 mM NaF, 2.5 mM MgCl2, 0.05% Triton X-100; bound eIF2 by immunoblot; fit y = 1 − [x/(x + IC50)].

A further assay has as its target Rab9 (UniProt P51151). The conditions noted are these: cited from earlier work.
The target in assay [2] is eIF5 (Saccharomyces cerevisiae) (UniProt P38431). The conditions noted are these: cited from earlier work.
eIF5 (Saccharomyces cerevisiae), sequence (P38431 whole entry): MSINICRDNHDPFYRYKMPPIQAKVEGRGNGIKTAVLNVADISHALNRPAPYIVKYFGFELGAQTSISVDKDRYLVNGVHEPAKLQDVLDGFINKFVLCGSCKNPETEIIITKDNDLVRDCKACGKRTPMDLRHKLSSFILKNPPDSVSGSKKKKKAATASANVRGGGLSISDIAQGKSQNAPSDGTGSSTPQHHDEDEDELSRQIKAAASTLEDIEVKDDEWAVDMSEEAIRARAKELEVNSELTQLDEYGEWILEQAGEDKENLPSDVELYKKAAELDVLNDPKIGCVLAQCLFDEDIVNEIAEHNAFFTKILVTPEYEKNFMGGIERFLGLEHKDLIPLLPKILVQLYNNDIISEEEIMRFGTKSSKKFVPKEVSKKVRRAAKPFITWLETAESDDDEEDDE
Assay [3] has as its target eIF2 (yeast (Saccharomyces cerevisiae)) (UniProt P20459).
For assay [4] the target is unchanged. As to the kind of experiment: other; displacement of eIF2 from GST-eIF5 (GDF assay). The conditions noted are these: complex; chains chain;chain;chain;chain.
The target in another assay is T1, eIF2 (yeast (Saccharomyces cerevisiae), UniProt P20459 1-304; P09064 1-285; P32481 1-527).
T1 chain 1: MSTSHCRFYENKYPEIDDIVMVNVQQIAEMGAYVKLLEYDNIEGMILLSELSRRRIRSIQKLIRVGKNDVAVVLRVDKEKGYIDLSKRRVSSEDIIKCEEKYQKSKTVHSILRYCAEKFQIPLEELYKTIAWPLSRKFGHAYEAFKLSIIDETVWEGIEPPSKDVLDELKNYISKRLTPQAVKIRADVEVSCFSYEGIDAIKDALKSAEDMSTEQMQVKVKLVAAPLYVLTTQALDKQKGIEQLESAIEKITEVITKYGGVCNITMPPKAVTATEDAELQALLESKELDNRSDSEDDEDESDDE
T1 chain 2: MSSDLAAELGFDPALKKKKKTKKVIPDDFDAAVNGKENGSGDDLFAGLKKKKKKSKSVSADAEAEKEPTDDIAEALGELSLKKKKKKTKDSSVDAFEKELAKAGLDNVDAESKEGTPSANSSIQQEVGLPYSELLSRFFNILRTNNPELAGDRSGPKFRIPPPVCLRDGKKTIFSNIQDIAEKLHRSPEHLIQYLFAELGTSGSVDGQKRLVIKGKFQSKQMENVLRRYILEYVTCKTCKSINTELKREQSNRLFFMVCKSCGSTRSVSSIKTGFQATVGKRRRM
T1 chain 3: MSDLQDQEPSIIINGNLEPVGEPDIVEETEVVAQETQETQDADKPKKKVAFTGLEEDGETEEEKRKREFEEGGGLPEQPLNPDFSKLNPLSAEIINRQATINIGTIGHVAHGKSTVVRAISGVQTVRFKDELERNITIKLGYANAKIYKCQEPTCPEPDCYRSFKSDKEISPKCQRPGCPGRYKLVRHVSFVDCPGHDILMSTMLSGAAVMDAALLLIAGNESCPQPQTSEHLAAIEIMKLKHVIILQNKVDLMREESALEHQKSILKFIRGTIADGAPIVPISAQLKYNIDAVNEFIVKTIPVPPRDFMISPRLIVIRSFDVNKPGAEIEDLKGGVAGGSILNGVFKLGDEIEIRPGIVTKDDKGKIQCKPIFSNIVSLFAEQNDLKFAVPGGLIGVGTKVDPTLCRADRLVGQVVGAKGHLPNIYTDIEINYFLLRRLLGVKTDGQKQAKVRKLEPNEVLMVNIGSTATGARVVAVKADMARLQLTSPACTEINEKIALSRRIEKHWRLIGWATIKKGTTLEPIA
In words: displacement of eIF2 from GST-eIF5 (GDF assay).

Assay [5] concerns the target eIF2 (yeast (Saccharomyces cerevisiae)) (UniProt P20459). In words: pull-down; GDF assay (competition): 1 µg eIF2 or eIF2αP and 1 µg GST-eIF5 bound to glutathione sepharose beads 2 h at 4°C, washed, then challenged 2 h at 4°C with increasing concentrations of Flag-eIF2B complexes, subunits or eIF5-Flag; 30 mM HEPES, 100 mM KCl, 100 µM GDP, 5 mM DTT, 1 mM NaF, 2.5 mM MgCl2, 0.05% Triton X-100; bound eIF2 by immunoblot; fit y = 1 − [x/(x + IC50)]. The source holds these as a separate data set. In general terms: A western blot detects proteins with antibodies after separation by electrophoresis.

Rab9, sequence (P51151 2-201): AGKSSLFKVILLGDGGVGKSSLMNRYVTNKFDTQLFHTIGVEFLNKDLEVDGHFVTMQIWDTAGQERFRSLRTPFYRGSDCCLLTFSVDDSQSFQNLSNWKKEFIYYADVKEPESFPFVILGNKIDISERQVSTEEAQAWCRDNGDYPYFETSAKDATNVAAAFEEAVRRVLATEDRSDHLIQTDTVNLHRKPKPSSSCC

As a reminder, the IC50 is the midpoint of a concentration-inhibition curve. Take “Flag-tagged eIF5 (eIF5-Flag) (from UniProt P38431 1-405) (natural protein)”: in assay [1], the IC50 was 244 nM.
The Kd is the constant that tells how readily two partners part at equilibrium. For the molecule GDIα (from UniProt P21856), the Kd with Rab9 was below 23 nM.
Turning to eIF2 (from UniProt P20459), the Kd in assay [2] was 23 nM.
“eIF2B-γG12V (mutant eIF2B complex) (from UniProt P14741 1-305; P32502 1-381; P09032 1-578; P12754 1-651; P32501 1-712)”: in assay [3], the K1/2 of mutant eIF2B for [3H]GDP release from eIF2 prebound to eIF5 (coupled GDI–GDF–GEF assay; pair displaced: eIF2 and eIF5) worked out at 134 nM.
Same read-out and setting: in the case of “eIF2B-γL480Q (mutant eIF2B complex) (from UniProt P14741 1-305; P32502 1-381; P09032 1-578; P12754 1-651; P32501 1-712)” it was 134 nM.
For the molecule “four-subunit eIF2B complex lacking the α subunit (eIF2Bβδγɛ), P32502 1-381; P12754 1-651; P09032 1-578; P32501 1-712”, in assay [4], the IC50 was found to be 25.7 nM.

B1: eIF2Bγ subunit alone (natural protein)
chain: MSIQAFVFCGKGSNLAPFTQPDFPFQTQNKDSTAATSGDKLNELVNSALDSTVINEFMQHSTRLPKALLPIGNRPMIEYVLDWCDQADFKEISVVAPVDEIELIESGLTSFLSLRKQQFELIYKALSNSNHSHHLQDPKKINFIPSKANSTGESLQKELLPRINGDFVILPCDFVTDIPPQVLVDQFRNRDDNNLAMTIYYKNSLDSSIDKKQQQKQKQQQFFTVYSENEDSERQPILLDVYSQRDVTKTKYLQIRSHLLWNYPNLTVSTKLLNSFIYFCSFELCQLLKLGPQSMSRQASFKDPFTGNQQQQNPPTTDDDEDRNHDDDDDYKPSATSIQPTYFKKKNDLILDPINCNKSLSKVFRDLSRRSWQHSKPREPIGIFILPNETLFIRANNLNAYMDANRFVLKIKSQTMFTKNIQIQSAAIGADAIVDPKCQISAHSNVKMSVLGTQANIGSRCRVAGSLLFPGVHLGDEVILENCIIGPMAKIGSKCKLSNCYIEGHYVVEPKNNFKGETLANVYLDEDEEDELIYDDSVIAGESEIAEETDSDDRSDEDSDDSEYTDEYEYEDDGLFER
In the assay with eIF2, B1 registered an IC50 of 318 nM.

B2: eIF2Bɛ subunit alone (natural protein)
chain: MAGKKGQKKSGLGNHGKNSDMDVEDRLQAVVLTDSYETRFMPLTAVKPRCLLPLANVPLIEYTLEFLAKAGVHEVFLICSSHANQINDYIENSKWNLPWSPFKITTIMSPEARCTGDVMRDLDNRGIITGDFILVSGDVLTNIDFSKMLEFHKKMHLQDKDHISTMCLSKASTYPKTRTIEPAAFVLDKSTSRCIYYQDLPLPSSREKTSIQIDPELLDNVDEFVIRNDLIDCRIDICTSHVPLIFQENFDYQSLRTDFVKGVISSDILGKHIYAYLTDEYAVRVESWQTYDTISQDFLGRWCYPLVLDSNIQDDQTYSYESRHIYKEKDVVLAQSCKIGKCTAIGSGTKIGEGTKIENSVIGRNCQIGENIRIKNSFIWDDCIIGNNSIIDHSLIASNATLGSNVRLNDGCIIGFNVKIDDNMDLDRNTKISASPLKNAGSRMYDNESNEQFDQDLDDQTLAVSIVGDKGVGYIYESEVSDDEDSSTEACKEINTLSNQLDELYLSDDSISSATKKTKKRRTMSVNSIYTDREEIDSEFEDEDFEKEGIATVERAMENNHDLDTALLELNTLRMSMNVTYHEVRIATITALLRRVYHFIATQTLGPKDAVVKVFNQWGLLFKRQAFDEEEYIDLMNIIMEKIVEQSFDKPDLILFSALVSLYDNDIIEEDVIYKWWDNVSTDPRYDEVKKLTVKWVEWLQNADEESSSEEE
B2: in assay [5], the IC50 amounted to 215 nM.

B3: eIF2Bγɛ subcomplex (catalytic subcomplex of eIF2B) (complex)
chain 1: MSIQAFVFCGKGSNLAPFTQPDFPFQTQNKDSTAATSGDKLNELVNSALDSTVINEFMQHSTRLPKALLPIGNRPMIEYVLDWCDQADFKEISVVAPVDEIELIESGLTSFLSLRKQQFELIYKALSNSNHSHHLQDPKKINFIPSKANSTGESLQKELLPRINGDFVILPCDFVTDIPPQVLVDQFRNRDDNNLAMTIYYKNSLDSSIDKKQQQKQKQQQFFTVYSENEDSERQPILLDVYSQRDVTKTKYLQIRSHLLWNYPNLTVSTKLLNSFIYFCSFELCQLLKLGPQSMSRQASFKDPFTGNQQQQNPPTTDDDEDRNHDDDDDYKPSATSIQPTYFKKKNDLILDPINCNKSLSKVFRDLSRRSWQHSKPREPIGIFILPNETLFIRANNLNAYMDANRFVLKIKSQTMFTKNIQIQSAAIGADAIVDPKCQISAHSNVKMSVLGTQANIGSRCRVAGSLLFPGVHLGDEVILENCIIGPMAKIGSKCKLSNCYIEGHYVVEPKNNFKGETLANVYLDEDEEDELIYDDSVIAGESEIAEETDSDDRSDEDSDDSEYTDEYEYEDDGLFER
chain 2: MAGKKGQKKSGLGNHGKNSDMDVEDRLQAVVLTDSYETRFMPLTAVKPRCLLPLANVPLIEYTLEFLAKAGVHEVFLICSSHANQINDYIENSKWNLPWSPFKITTIMSPEARCTGDVMRDLDNRGIITGDFILVSGDVLTNIDFSKMLEFHKKMHLQDKDHISTMCLSKASTYPKTRTIEPAAFVLDKSTSRCIYYQDLPLPSSREKTSIQIDPELLDNVDEFVIRNDLIDCRIDICTSHVPLIFQENFDYQSLRTDFVKGVISSDILGKHIYAYLTDEYAVRVESWQTYDTISQDFLGRWCYPLVLDSNIQDDQTYSYESRHIYKEKDVVLAQSCKIGKCTAIGSGTKIGEGTKIENSVIGRNCQIGENIRIKNSFIWDDCIIGNNSIIDHSLIASNATLGSNVRLNDGCIIGFNVKIDDNMDLDRNTKISASPLKNAGSRMYDNESNEQFDQDLDDQTLAVSIVGDKGVGYIYESEVSDDEDSSTEACKEINTLSNQLDELYLSDDSISSATKKTKKRRTMSVNSIYTDREEIDSEFEDEDFEKEGIATVERAMENNHDLDTALLELNTLRMSMNVTYHEVRIATITALLRRVYHFIATQTLGPKDAVVKVFNQWGLLFKRQAFDEEEYIDLMNIIMEKIVEQSFDKPDLILFSALVSLYDNDIIEEDVIYKWWDNVSTDPRYDEVKKLTVKWVEWLQNADEESSSEEE
In the assay with eIF2, B3 showed an IC50 of 20 nM.

The record behind these values is PMC3877758 (2013).
